This note sets out measurements from the DeepSol protein solubility set.

The series is described as follows: soluble on expression in E. coli; label from the status in PepcDB or PDB records.
As to “MYQNFVTKHDTAIQTSRFSVTGNVIPAAPTGNIPVINGGSITAERAVVNLYANMNVSTSSDGSFIVAMKVDTSPTDPNCVISAGVNLSFAGTSYPIVGIVRFESASEQPTSIAGSEVEHYPIEMSVGSGGVCSARDCATVDIHPRTSGNNVFVGVICSSAKWTSGRVIGTIATTQVIHEYQVLQPLK”, the “soluble on expression in E. coli” value is on record as “soluble”. For “GPGSMEDYKAKGNDAFKAKRYQEAIDWYTKAIELDPNGEASGALYSNRAGSWQNLNNFEKAAADSEQCIRLRPDWLKGYFRLGVAMESMVKYDEAQKAFQKALQLSPGNEEGWTSCTPLILKFASAYEKTKSRSARPLKKPSNLATPS”, the “soluble on expression in E. coli” value is listed as “soluble”. For “SLQIKKLFIALGIVLPLHMQGQNFLIKDAPEVIESYVNQFNREDNELYKQDIPNCGASDFLRKNIPFFECPDKELEKTYYFRWWTYRKHIKKTPDGFVITEFLPDVPWSGKYNTISCAANHHFYEGRWLRNAEILSDYASFWFSGSGNPRLYSFGAADAIYNYYLIHNDKMLLADLYPKLKDNFAKWEEEKRDSTGMFWQVDDRDGMEMSVSGHLSEGGRGYRPTINSYMYGEAVALAKIASIVDRDMEARTYQKKADKLKGIINRRLWDKQADFYKVIPLNGKMEFSYARELLGYIPWFYNIPPDNYSIAWKQLFDSKGFEAAYGPTTVEQRCPDFKISYEGHECQWNGPSWPYLTSMTLAAMANYFNSYDSPIITKKDYLSLLNIYSNSHRILSVNNDTICWIDENINPYTGDWISRTRLKSWKNGTWDDSKGGVERGKDYNHSSFCNLIISGLMGVRPQEDGSIIINPLVPDGCWDYFCLDNVYCQGKTITIIFDKKGKKYGRGKGFIVYVDDKCLSHTTRVQKVVIR”, the “soluble on expression in E. coli” value was “not soluble”. For “MRVRSETVNKPQSLRHALNKAVPYVRNNPDKLHLFVDNGSLVATGASSMSWEYRYTLNAVIEDFSGDQNLLMAPVLLWLRDNQPDAINNPALREKLFTFEVDILRNDVCDISLNLQLTERVLVSTDGSVSSVEAVAEPDEPEEMWTVKRG”, the “soluble on expression in E. coli” value is on record as “not soluble”. Then “MGHHHHHHSHMCPRCGKQFNHSSNLNRHMNVHRGVKSHSCGICGKCFTQKSTLHDHLNLHSGARPYRCSYCD”, with “soluble”; and “MVSLRSGKRVSRPSPSTPLEKPAETSTNPMETPKRAVKGQKTVEEKEKLPISLRKSERLAKNSGENSSAEIAEEHKEIVAPSQENSVDDDAESTQLSVDVFADPSDFEDDDDEVVPETDYEDNNEEPKNDQNPVEIPDNSDSDDDEPMEISSKNPVTSIENPENSDSDDDEPMEATSKAPEMSVAEPKSIIEKLLEKKAEKSAKLAAKKLKKRSKKKEAKKISDGVFQVKMKKSKAKFNVVTLKAGVQNILEPQINFREELLKSRTAGTRLADTEKFLQRGKWVSKR”, with “soluble”.

As to “MGHHHHHHSHMPKHPSQSTVCQKGTPNSASKTKDKVNKRNERGETRLHRAAIRGDARRIKELISEGADVNVKDFAGWTALHEACNRGYYDVAKQLLAAGAEVNTKGLDDDTPLHDAANNGHYKVVKLLLRYGGNPQQSNRKGETPLKVANSPTMVNLLLGKGTYTSSEESSTESSEE”, the “soluble on expression in E. coli” value is listed as “soluble”. As for “ATLDVRGGYRSGSHAYETRLKVSEGWQNGWWASMESNTWNTIHDNKKENAALNDVQVEVNYAIKLDDQWTVRPGMLTHFSSNGTRYGPYVKLSWDATKDLNFGIRYRYDWKAYRQQDLSGDMSRDNVHRWDGYVTYHINSDFTFAWQTTLYSKQNDYRYANHKKWATENAFVLQYHMTPDITPYIEYDYLDRQGVYNGRDNLSENSYRIGVSFKL”, the “soluble on expression in E. coli” value is “soluble”. In the case of “GMNRLRTSFQQTTGQISGHGKRNVGVLKTAFAAVADEMASDQYGTGAIIEPFEQKFADVLGMDDAVFFPSGTMAQQVALRIWSDETDNRTVAYHPLCHLEIHEQDGLKELHPIETILVGAADRLMTLDEIKALPDIACLLLELPQREIGGVAPAFSELETISRYCRERGIRLHLDGARLFEMLPYYEKTAAEIAGLFDSIYISFYKGLGGIAGAILAGPAAFCQTARIWKRRYGGDLISLYPYIVSADYYYELRKDRMGQYYEQAKQLAEQFNALPGVHTTPEVPVSNMFHLHFDGQAADISPKLEQVQEETGLGFVGYLVDKDGYCSTEISVGDAYGELDQQTRDAGFARLRQAFS”, the “soluble on expression in E. coli” value was “soluble”. On to “MSAEAVAAAPIAEEATPVVYYSIESNDRVVLKISEQAIKQSATLSNSITNLGYSAENAESMVPIPIEKVNGKTLKLVVEWCEHHKADPVPEAYPSGNTVLPVWDRKFVDIEHDALTDLVNASNFLEVMTLLTYCCKFIAGLAKGMSPEEMRVFFCIPTDEEDEKAERFGKEKTEASATSADTTA”, for which the “soluble on expression in E. coli” value was “not soluble”. For the sequence “MSLSSVNCIEQTTEWTACSKSCGMGFSTRVTNRNRQCEMLKQTRLCMVRPCEQEPEQPTDKKGKKCLRTKKSLKAIHLQFKNCTSLHTYKPRFCGVCSDGRCCTPHNTKTIQAEFQCSPGQIVKKPVMVIGTCTCHTNCPKNNEAFLQELELKTTRGKMEGHHHHHH”, the “soluble on expression in E. coli” value is reported as “not soluble”. As for “MNSPANITDPLVLFMPSGKRGRFPVGTPVLDAARQLGVYVESVCGGRATCGRCQIEVQEGNFAKHKIVSSNDHISPKGPKEERYERVRGLPERRRLSCSAQILGDLVIDVPQDTVINAQTIRKDLEHHHHHH”, the entry is “not soluble”; as for “MKLDPQTLAHITSATLGNYNRVADDFREGTRDHDVSQNIDALLRHIEGSAPWQILDFGCGPGRDLKTFTAMGHVAVGLDGSERFAEMARAETGCEVFQQNFLELDLPQGRFDGIFANAVLFHIPRQELPRVLRELYATLKPGGVLFSSNPRGQNQEGWQGERYGAYHDLETWRQLLTDAGFAELEHYYRPAGLPRDQQPWLASVWRRLEHHHHHH”, “not soluble”; as for “MGSDKIHHHHHHMNTTNQTAPQGFRLNALGHAVPESQIKEIDKLRDELVLQIVTAAKEMQGHMATYKATSMRAVADFIDLSASEFGVKFGGTKGNVSLVSFDGKYKVQRSIGEHRVFDERIQAAKSKIDDCIKRWSVGSNDHIKALVELSFKVNKQGYIDINQVLSLRQLDIDDTDWRSAMDAIADSIQVMGSTPYLRVYERQDDGTYKQISLDIAKL”, “not soluble”. As to “ELDWFARRGLKEPNLAELLDLVALGSVADVVPLDANNRILVHQGLARIRAGRARPGLRALLEVAGRPPVRITSTDLGFILGPRLNAAGRLDDMSLGIECLLCDDEALARDMAVQLDQLNQDRKAIEQGMQREALAQLKELSLEQLPFGLCLFDADWHQGVIGILASRLKERYHRPTIAFADAGDGSLKGSARSIPGFHIRDALDAVAARHPGLISKFGGHAMAAGLSLPQENFGAFSAAFDAEVRRQLAEEDLAGRLLSDGQLSIQEFHLELARALRQAGPWGQHFPEPMFHGVFQLVQQRIVGERHLKLVLKSECGSLQLDGIAFNIDREQWPNPTVRWAELAYKLDVNEFRGQESVQL”, the “soluble on expression in E. coli” value was “not soluble”. As for “MADLRKAARGRECQVRIPGVCNGNPETSVLAHIRLTGLCGTGTKPPDLIATIACSACHDEIDRRTHFVDAGYAKECALEGMARTQVIWLKEGVIKA”, the entry is “soluble”; as for “MGVKTFQFPFAEQLEKVAEQFPTFQILNEEGEVVNEEAMPELSDEQLKELMRRMVYTRILDQRSISLNRQGRLGFYAPTAGQEASQIASHFALEKEDFILPGYRDVPQIIWHGLPLYQAFLFSRGHFHGNQIPEGVNVLPPQIIIGAQYIQAAGVALGLKMRGKKAVAITYTGDGGTSQGDFYEGINFAGAFKAPAIFVVQNNRFAISTPVEKQTVAKTLAQKAVAAGIPGIQVDGMDPLAVYAAVKAARERAINGEGPTLIETLCFRYGPHTMSGDDPTRYRSKELENEWAKKDPLVRFRKFLEAKGLWSEEEENNVIEQAKEEIKEAIKKADETPKQKVTDLISIMFEELPFNLKEQYEIYKEKESK”, “soluble”; as for “MNYPMIAGRVFGTPLLVDPVKGAAFLAGLGPRLVNGALELRGLEELAPDRVAEAGRIAPRASVLLDDAGDARREAGRPLYLVEGGVAVIEVTGTLVHRGGWIGQSSGTTSYEGLMAQISAAVADPSVRGIALEIDSYGGEVAGLFDLADAIRAARAVKPVRAFVAEAALSAAYAIASQAERIVLPRTGAVGSIGVLLVHADFSQAMADRGVAVTLIHAGRHKVDGNPYEALPEGVRADLQARVEASRALFAETVAAGRGARLSRQQALATEAQVLDGAAAVAAGLADEVSDLRRAFAAFRAELFDPHLTSPRAGTPAAAKETPTMTDETTTGAARGTAAEGSAPPMETAEGSGGGAPAANVAVAEAAELIEIGQQAARLGLAVDVADAMRRGLSAAALRRTVLDGLAARGDGADLVAHAPTAAAGPKESPLLAAARRTAEAQAASRRA”, “not soluble”.

On to “MGSDKIHHHHHHMGVFLDKSIKEVVDELNGRYFLPDIQREYVWLQNADGKKIEQLFDSILRGYPIGFFLFWKLPKEDIAKSDEQDSDKLNFQLYQFITNYDERKPHNEKIRIEQIKRDDLYIVLDGQQRLTSLYIGLKGTRTLKKKNARYDNPNAYEEKRLYLNLKHQPNMDNPEDNYEFEFHAQKPENDKKHWWFKVGDILESESHVWNYADEHGLKGNELKLLGDLHRAFHTKQLVSFFEETEKNLNKVLNIFIRVNSGGVKLSYSDLLMSILTASFSSDIREKMNELVDALKDKGFSNMG”, for which the “soluble on expression in E. coli” value is “not soluble”.

With “MGSDKIHHHHHHMANMKNSNDRIILFRKAGEKVDATKMLFLTEYGLSHEADTDTEDTMDGSYNTGGSVESTMSGTAKMFYGDDFADEIEDAVVDRVLYEAWEVESRIPGKNGDATKFKAKYFQGFHNKFELKAEANGIDEYEYEYGVNGRFQRGFATLPEAVTKKLKATGYRFHDTTKADALTGEDLTAIPQPKVDSSTVTPGEV”, the “soluble on expression in E. coli” value was “not soluble”. Consider “MAHHHHHHMTSVYNFKTITVVPTYKDFMDIVLSKTQRKTPTVVHKGYHISRIRQFYMRKVKFTQKTINEKLTYILQEFPRMDDIHPFYGDLMHVLYDRDHYKVALGQVGAVRHMVDNIGRDYVRLLKYGDSLYRCKQLKRAALGRMATACKKLNSALAYLEKVRQHMSRLPSIDPNARTLLVTGFPNVGKSSFMNKVTRADVEVQPYAFTTKSLFVGHTDYKYTTWQVIDTPGILDHSLEERNVIEMQAITALAHLRACILFFMDLSGQCGYSIEQQVSLFKSVGPLFTGKPVVVVFNKCDVCTIDDVSSAEQELIMDAIQEADAKWITTSTLTDVGVGDLKTVACDMLLAHRSEQKEGSGRYQAIQNRLYCATPQQRDELERPAFVPASVLQARATGEPPRQRRKTERDYEWENGGPGQYQKNERKTWDLENPEWVDDIIPDIMDGHNIYDNIDPDIHQRLLELEAEEEARLEDLELEASRKHEQYTLDNDTIEAVKFIKDKIKVLKMERAMKNPAIRRTHSQAMAIDKFNKRTGSQDARAKSIADGSGEVPTRKRGRSMSVAQEALIRDRSGSAHVSTKTTRSISGASASRERSMSVNRGDGYRDVNEKLRAVKLSKVKARPLARQARKGEGDHHIPNLRPMHLFTGKVKSNGARDRR”, for which the “soluble on expression in E. coli” value is on record as “not soluble”.

Turning to “MEQLQVGQVTLTWLNGGVTHLDGGAMFGVVPKPLWSKKYPPNDQNQIELRTDPILVEAGGKRLLIESGIGNGKLTDKQKRNFGVTEESSLDESLAALGLTRGDIDIVIMTHLHFDHACGLTVWEDGRLVPAFPRAAIITSDVEWEEMRAPNIRSRNTYWKENWEPIAEQVIPFTKETEVVSGIRLIHTGGHSAGHAIVLIESDGEMAIHLGDLLGTHAHQNVLWVMAYDDYPMDSIFAKQRWLPYGIERNAWFTFYHDAYYRAVKWREDGTIAEQVKRNRPTLLEHHHHHH”, the “soluble on expression in E. coli” value is reported as “soluble”. Then “AEAKSKLTVALGKDIAGTPVVGDLAKMPHLLVAGMTGSGKSVGVNGMIMSMLFKATPDEVRFIMIDPKMLELSIYDGIPHLLCPVVTDMREAGQALNWCVAEMEKRYRLLSHAGVRNLEGFNQKVEAAKAAGKPLLNPFSLNPDEPEPLEKLPLIVVVIDELADLMMTERKAVEQQIARLAQKARAAGIHMIVATQRP”, with “not soluble”.
